Test results published in publication PMC4297519 (Nature, 2014).

Biological target: the molecule itself
Assay: crystal structure

B1: human CEACAM1 IgV domain (GST tag removed) (domain or fragment)
chain: QLTTESMPFNVAEGKEVLLLVHNLPQQLFGYSWYKGERVDGNRQIVGYAIGTQQATPGPANSGRETIYPNASLLIQNVTQNDTGFYTLQVIKSDLVNEEATGQFHVY
binding result: binds
